Measurements published in patent US20100292104A1 (LAWRENCE LIVERMORE NATIONAL SECURITY, published 2010).

Molecular target: Maltose Binding Protein (MBP)-N-intein fusion protein (Synechocystis sp. PCC6803, UniProt P74750 771-897)
Test: cell-based or functional assay

Binder	trans-splicing activity relative to the non-photocaged C-intein polypeptide
DnaE C-intein polypeptide photocaged at Gly31 (Gly31 backbone amide caged with nitroveratryl (1,2-dimethoxy-4-methyl-3-nitro-benzyl) group; C-terminal PEGylated thiol linker; Cys37 protected as S-tBu during synthesis) peptide: not shown	10%
DnaE C-intein polypeptide photocaged at Gly6 (Gly6 backbone amide caged with nitroveratryl (1,2-dimethoxy-4-methyl-3-nitro-benzyl) group; C-terminal PEGylated thiol linker; Cys37 protected as S-tBu during synthesis) peptide: not shown	~30%
DnaE C-intein polypeptide photocaged at Gly11 (Gly11 backbone amide caged with nitroveratryl (1,2-dimethoxy-4-methyl-3-nitro-benzyl) group; C-terminal PEGylated thiol linker; Cys37 protected as S-tBu during synthesis) peptide: not shown	~60%
DnaE C-intein polypeptide photocaged at Gly19 (Gly19 backbone amide caged with nitroveratryl (1,2-dimethoxy-4-methyl-3-nitro-benzyl) group; C-terminal PEGylated thiol linker; Cys37 protected as S-tBu during synthesis) peptide: not shown	~30%
